According to patent US20210324359A1, “USE OF GRAM-NEGATIVE LYSIN-ANTIMICROBIAL PEPTIDE (AMP) POLYPEPTIDE CONSTRUCTS IN TREATING ENDOCARDITIS” (priority 2020, published 2021):

Assays:
[1] = system: Pseudomonas aeruginosa strain CFS-1292 (meropenem resistant); settings: strain CFS-1292; no added cations
Method: The activity of selected GN lysins and constructs in the presence of divalent cations was evaluated, and the impact of divalent cations at physiological concentrations was examined in the MIC assay format.

[2] = system: P. aeruginosa strain PA453; test: Time-kill assay of GN370 in animal blood (Table 34); type: cell-based, Pseudomonas aeruginosa; settings: limit of detection 1.6
Text: The results are shown below in Table 34, wherein survival is reported as Log10 CFU/mL and wherein the limit of detection was 1.6 Log10 CFU/mL.

B1: GN370: lysin-AMP construct: MIDR, FIRL and NPTH moieties N-terminal to GN202 lysin (SEQ ID NO: 44) (protein)
chain: MIDRFIRLNPTHGPRRPRRPGRRAPVRTSQRGIDLIKSFEGLRLSAYQDSVGVWTIGYGTTRGVTRYMTITVEQAERMLSNDIQRFEPELDRLAKVPLNQNQWDALMSFVYNLGAANLASSTLLDLLNKGDYQGAADQFPHWVNAGGKRLDGLVKRRAAERALFLEPLS
[1]
  MIC in 25% CAA: 4 µg/mL
[2]; Dog blood, 2 hours, GN370 4 μg/mL
  Log10 CFU/mL of P. aeruginosa: 3.5 Log10 CFU/mL
[2]; Dog blood, 2 hours, GN370 20 μg/mL
  Log10 CFU/mL of P. aeruginosa: 1.6 Log10 CFU/mL
[2]; Dog blood, 2 hours, GN370 50 μg/mL
  Log10 CFU/mL of P. aeruginosa: 1.6 Log10 CFU/mL
[2]; Dog blood, 2 hours, GN370 100 μg/mL
  Log10 CFU/mL of P. aeruginosa: 1.6 Log10 CFU/mL
[2]; Dog blood, 2 hours, GN370 200 μg/mL
  Log10 CFU/mL of P. aeruginosa: 1.6 Log10 CFU/mL
[2]; Dog blood, 4 hours, GN370 4 μg/mL
  Log10 CFU/mL of P. aeruginosa: 4.7 Log10 CFU/mL
[2]; Dog blood, 4 hours, GN370 20 μg/mL
  Log10 CFU/mL of P. aeruginosa: 1.6 Log10 CFU/mL
[2]; Dog blood, 4 hours, GN370 50 μg/mL
  Log10 CFU/mL of P. aeruginosa: 1.6 Log10 CFU/mL
[2]; Dog blood, 4 hours, GN370 100 μg/mL
  Log10 CFU/mL of P. aeruginosa: 1.6 Log10 CFU/mL
[2]; Dog blood, 4 hours, GN370 200 μg/mL
  Log10 CFU/mL of P. aeruginosa: 1.6 Log10 CFU/mL
[2]; Dog blood, 24 hours, GN370 4 μg/mL
  Log10 CFU/mL of P. aeruginosa: 7.2 Log10 CFU/mL
[2]; Dog blood, 24 hours, GN370 20 μg/mL
  Log10 CFU/mL of P. aeruginosa: 1.6 Log10 CFU/mL
[2]; Dog blood, 24 hours, GN370 50 μg/mL
  Log10 CFU/mL of P. aeruginosa: 1.6 Log10 CFU/mL
[2]; Dog blood, 24 hours, GN370 100 μg/mL
  Log10 CFU/mL of P. aeruginosa: 1.6 Log10 CFU/mL
[2]; Dog blood, 24 hours, GN370 200 μg/mL
  Log10 CFU/mL of P. aeruginosa: 1.6 Log10 CFU/mL
[2]; Human blood, 2 hours, GN370 4 μg/mL
  Log10 CFU/mL of P. aeruginosa: 1.6 Log10 CFU/mL
[2]; Human blood, 2 hours, GN370 20 μg/mL
  Log10 CFU/mL of P. aeruginosa: 1.6 Log10 CFU/mL
[2]; Human blood, 2 hours, GN370 50 μg/mL
  Log10 CFU/mL of P. aeruginosa: 1.6 Log10 CFU/mL
[2]; Human blood, 2 hours, GN370 100 μg/mL
  Log10 CFU/mL of P. aeruginosa: 1.6 Log10 CFU/mL
[2]; Human blood, 2 hours, GN370 200 μg/mL
  Log10 CFU/mL of P. aeruginosa: 1.6 Log10 CFU/mL
[2]; Human blood, 4 hours, GN370 4 μg/mL
  Log10 CFU/mL of P. aeruginosa: 1.6 Log10 CFU/mL
[2]; Human blood, 4 hours, GN370 20 μg/mL
  Log10 CFU/mL of P. aeruginosa: 1.6 Log10 CFU/mL
[2]; Human blood, 4 hours, GN370 50 μg/mL
  Log10 CFU/mL of P. aeruginosa: 1.6 Log10 CFU/mL
[2]; Human blood, 4 hours, GN370 100 μg/mL
  Log10 CFU/mL of P. aeruginosa: 1.6 Log10 CFU/mL
[2]; Human blood, 4 hours, GN370 200 μg/mL
  Log10 CFU/mL of P. aeruginosa: 1.6 Log10 CFU/mL
[2]; Human blood, 24 hours, GN370 4 μg/mL
  Log10 CFU/mL of P. aeruginosa: 4.1 Log10 CFU/mL
[2]; Human blood, 24 hours, GN370 20 μg/mL
  Log10 CFU/mL of P. aeruginosa: 1.6 Log10 CFU/mL
[2]; Human blood, 24 hours, GN370 50 μg/mL
  Log10 CFU/mL of P. aeruginosa: 1.6 Log10 CFU/mL
[2]; Human blood, 24 hours, GN370 100 μg/mL
  Log10 CFU/mL of P. aeruginosa: 1.6 Log10 CFU/mL
[2]; Human blood, 24 hours, GN370 200 μg/mL
  Log10 CFU/mL of P. aeruginosa: 1.6 Log10 CFU/mL
[2]; Rabbit blood, 2 hours, GN370 4 μg/mL
  Log10 CFU/mL of P. aeruginosa: 1.6 Log10 CFU/mL
[2]; Rabbit blood, 2 hours, GN370 20 μg/mL
  Log10 CFU/mL of P. aeruginosa: 1.6 Log10 CFU/mL
[2]; Rabbit blood, 2 hours, GN370 50 μg/mL
  Log10 CFU/mL of P. aeruginosa: 1.6 Log10 CFU/mL
[2]; Rabbit blood, 2 hours, GN370 100 μg/mL
  Log10 CFU/mL of P. aeruginosa: 1.6 Log10 CFU/mL
[2]; Rabbit blood, 2 hours, GN370 200 μg/mL
  Log10 CFU/mL of P. aeruginosa: 1.6 Log10 CFU/mL
[2]; Rabbit blood, 4 hours, GN370 4 μg/mL
  Log10 CFU/mL of P. aeruginosa: 3.0 Log10 CFU/mL
[2]; Rabbit blood, 4 hours, GN370 20 μg/mL
  Log10 CFU/mL of P. aeruginosa: 1.6 Log10 CFU/mL
[2]; Rabbit blood, 4 hours, GN370 50 μg/mL
  Log10 CFU/mL of P. aeruginosa: 1.6 Log10 CFU/mL
[2]; Rabbit blood, 4 hours, GN370 100 μg/mL
  Log10 CFU/mL of P. aeruginosa: 1.6 Log10 CFU/mL
[2]; Rabbit blood, 4 hours, GN370 200 μg/mL
  Log10 CFU/mL of P. aeruginosa: 1.6 Log10 CFU/mL
[2]; Rabbit blood, 24 hours, GN370 4 μg/mL
  Log10 CFU/mL of P. aeruginosa: 4.9 Log10 CFU/mL
[2]; Rabbit blood, 24 hours, GN370 20 μg/mL
  Log10 CFU/mL of P. aeruginosa: 1.6 Log10 CFU/mL
[2]; Rabbit blood, 24 hours, GN370 50 μg/mL
  Log10 CFU/mL of P. aeruginosa: 1.6 Log10 CFU/mL
[2]; Rabbit blood, 24 hours, GN370 100 μg/mL
  Log10 CFU/mL of P. aeruginosa: 1.6 Log10 CFU/mL
[2]; Rabbit blood, 24 hours, GN370 200 μg/mL
  Log10 CFU/mL of P. aeruginosa: 1.6 Log10 CFU/mL
[2]; Rat blood, 2 hours, GN370 4 μg/mL
  Log10 CFU/mL of P. aeruginosa: 5.9 Log10 CFU/mL
[2]; Rat blood, 2 hours, GN370 20 μg/mL
  Log10 CFU/mL of P. aeruginosa: 6.1 Log10 CFU/mL
[2]; Rat blood, 2 hours, GN370 50 μg/mL
  Log10 CFU/mL of P. aeruginosa: 1.6 Log10 CFU/mL
[2]; Rat blood, 2 hours, GN370 100 μg/mL
  Log10 CFU/mL of P. aeruginosa: 1.6 Log10 CFU/mL
[2]; Rat blood, 2 hours, GN370 200 μg/mL
  Log10 CFU/mL of P. aeruginosa: 1.6 Log10 CFU/mL
